Source: patent publication US20170101466A1 (published 2017)

T1: human APRIL (human, UniProt O75888 105-250, limits assumed)
T1 construct: Bought recombinant protein; also called hAPRIL
T1 sequence (looked up): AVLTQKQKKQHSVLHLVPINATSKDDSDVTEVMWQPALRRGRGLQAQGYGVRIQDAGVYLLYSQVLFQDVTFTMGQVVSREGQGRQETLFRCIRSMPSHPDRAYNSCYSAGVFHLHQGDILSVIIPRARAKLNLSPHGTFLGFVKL

T2: human TACI (R&D Systems receptor chimera) (human, UniProt O14836 2-166)
T2 construct: also called hTACI; TACI rec Human
T2 sequence (looked up): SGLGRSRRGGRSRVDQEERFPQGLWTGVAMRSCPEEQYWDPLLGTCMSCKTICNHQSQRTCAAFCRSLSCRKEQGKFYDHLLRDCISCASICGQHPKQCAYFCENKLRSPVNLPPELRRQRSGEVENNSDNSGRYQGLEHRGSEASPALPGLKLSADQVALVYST

B1: mouse APRIL (ligand, UniProt Q9D777 96-241, looked up)
chain: AVLTQKHKKKHSVLHLVPVNITSKADSDVTEVMWQPVLRRGRGLEAQGDIVRVWDTGIYLLYSQVLFHDVTFTMGQVVSREGQGRRETLFRCIRSMPSDPDRAYNSCYSAGVFHLHQGDIITVKIPRANAKLSLSPHGTFLGFVKL
notes: Bought recombinant protein; also called mAPRIL

How the values were obtained:
[1] = target: T1, human APRIL; assay: Biacore, binder captured, APRIL injected at 50 nM
Method: (§1) Recombinant protein NG (Thermo Scientific, Cat #21186) was diluted to 100 μg/ml in 10 mM Sodium Acetate pH 4.0 and then immobilized on the surface of a pre-activated Series S CM4 Biacore chip (GE, Cat #BR-1005-34) using amine coupling. […] Binding response was measured as the difference in total RU increase during 300 second APRIL injection of each individual flow cell and the reference flow cell (e.g., Flow cell 2-1).

[2] = target: B1; assay: Biacore, binder captured, APRIL injected at 50 nM
Method: as §1

[3] = target: T3, soluble human BLyS (human, UniProt Q9Y275 134-285); assay: Biacore T100, binder captured by anti-human Fc, BLyS injected, 1:1 model
T3 construct: also called hBLyS; human BAFF (BLyS)
Method: (§2) A Series S CM5 Chip (GE Healthcare) was amine coupled with an anti-human Fc capturing antibody (GE Healthcare Human Fc Kit) to >10,000 RUs. Sample antibodies were diluted in 1×HBS-EP+ running buffer to 0.15 ug/mL and injected for 45 seconds at 10 uL/min. […] Biacore Evaluation software was used to fit the data to a 1:1 Binding Model.

[4] = target: T4, soluble mouse BLyS (mouse, UniProt Q9WU72 127-309); assay: as above
T4 construct: europium-labelled in DELFIA; also called mBLyS; mouse BAFF (BLyS)
Method: as §2

[5] = target: T3, soluble human BLyS; assay: cell-based or functional assay
[6] = target: T4, soluble mouse BLyS; assay: cell-based or functional assay
[7] = target: T1, human APRIL; assay: Biacore, antibody captured, APRIL injected
Method: as §1

[8] = target: B1; assay: Biacore, antibody captured, APRIL injected
Method: as §1

[9] = target: T3, soluble human BLyS; assay: DELFIA competition, Eu-hBLyS binding to coated BR3
Method: (§3) After 5× washing with 200 ul/well of DELFIA 1× wash solution (PE, Cat #4010-0010), plates were blocked with 3% BSA purified from trace heavy metal amounts (PE, Cat #CR84-100) for 3 hours with shaking at room temperature. Plates were washed again five times at 200 μl/well with DELFIA wash solution.
(§4) The final 3 wells across the plate served as controls (2 wells contained 2,000 pM mAbs for negative and background controls while the third contained no mAbs for positive control). […] After 18-24 hrs at 4° C., plates were read on PE EnVision plate reader with laser excitation, LANCE/DELFIA top mirror, and emission filter Eu-615 with a delay of 400 μs. Data were fit to four parameter (variable slope) inhibition dose response curve using GraphPad PRISM 5.0 software.

[10] = target: T4, soluble mouse BLyS; assay: DELFIA competition, Eu-mBLyS binding to coated BR3
Method: as §3, §4

[11] = target: T3, soluble human BLyS; assay: DELFIA competition, Eu-hBLyS binding to coated BCMA
Method: as §3, §4

[12] = target: T3, soluble human BLyS; assay: DELFIA competition, Eu-hBLyS binding to coated TACI
Method: as §3, §4

[13] = target: T4, soluble mouse BLyS; assay: DELFIA competition, Eu-mBLyS binding to coated BCMA
Method: as §3, §4

[14] = target: T4, soluble mouse BLyS; assay: DELFIA competition, Eu-mBLyS binding to coated TACI
Method: as §3, §4

[15] = target: T3, soluble human BLyS; assay: Biacore, antibody captured on chip, BLyS injected, 1:1 model, 25 C
Method: (§5) Recombinant protein NG (Thermo Scientific, Cat #21186) was diluted to 100 μg/ml in 10 mM sodium acetate pH 4.0 and then immobilized on the surface of a pre-activated Series S CM5 Biacore chip (GE, Cat #BR-1005-34) using amine coupling. […] After the dissociation period, the chip was regenerated back to baseline by injecting 10 mM glycine pH 1.5 for 120 seconds over the four flow cells. […] The entire data set was fit to a 1:1 interaction model to give kₒₙ, koff, and Kd values. The assay was run at 25° C. in 1× biacore running buffer HBS-EP+ (GE, Cat #BR-1006-69).

[16] = target: T4, soluble mouse BLyS; assay: as above
Method: as §5

[17] = target: T3, soluble human BLyS; assay: Biacore
[18] = target: T4, soluble mouse BLyS; assay: Biacore
[19] = target: T3, soluble human BLyS; assay: ELISA, soluble hBLyS
[20] = target: T4, soluble mouse BLyS; assay: ELISA, soluble mBLyS
[21] = target: T5, soluble cynomolgus BLyS (cynomolgus, UniProt A0A2K5V2X4 134-285); assay: ELISA, soluble cyBLyS
T5 construct: Soluble form; also called cyBLyS; Soluble cyBLyS

[22] = target: T3, soluble human BLyS; assay: blocking of biotinylated soluble hBLyS binding to immobilized mBR3
[23] = target: T3, soluble human BLyS; assay: ELISA, soluble hBLyS; soluble hBLyS ELISA (weak, IC50 28 nM)
[24] = target: T3, soluble human BLyS; assay: blocking of biotinylated soluble hBLyS binding to immobilized mBR3; hBLyS/mBR3 receptor blocking assay; no blocking up to 100 nM
[25] = target: T3, soluble human BLyS; assay: ELISA, soluble hBLyS; soluble hBLyS ELISA
[26] = target: T2, human TACI (R&D Systems receptor …); assay: Biacore, binder captured, APRIL injected at 50 nM
Method: as §1

Row | Kd [3] [nM] | koff [3] [s⁻¹] | kon [3] [M⁻¹ s⁻¹] | Kd [4] [nM] | koff [4] [s⁻¹] | kon [4] [M⁻¹ s⁻¹] | IC50 hBLyS stimulated, mouse splenic B-cell proliferation [5] [ng/mL] | IC50 mBLyS stimulated, mouse splenic B-cell proliferation [6] [ng/mL] | binding result [7] | binding result [8] | IC50 [9] [nM] | IC50 [10] [nM] | IC50 [11] [nM] | IC50 [12] [nM] | IC50 [13] [nM] | IC50 [14] [nM] | Kd [15] [nM] | koff [15] [s⁻¹] | kon [15] [M⁻¹ s⁻¹] | IC50 [21] [nM] | Binder | other results
1 | 0.602 | 0.000239 | 397000 | 0.177 | 0.000121 | 682000 |  |  |  |  |  |  |  |  |  |  |  |  |  |  | mouse TACI (R&D Systems receptor chimera) (receptor, UniProt Q9ET35 2-129, looked up, not shown: a dimerising Fc or GST, also called mTACI; TACI rec Mouse) AMAFCPKDQYWDSSRKSCVSCALTCSQRSQRTCTDFCKFINCRKEQGRYYDHLLGACVSCDSTCTQHPQQCAHFCEKRPRSQANLQPELGRPQAGEVEVRSDNSGRHQGSEHGPGLRLSSDQLTLYCT | binding result [1]: binds; binding result [2]: binds
2 | 0.068 | 4.6e-05 | 678000 | 0.037 | 0.000102 | 2.73e+06 | ≤ 1 | ≤ 1 | no binding (tested: 50 nM) | no binding (tested: 50 nM) | 0.0377 | 0.094 | 0.0016 | 0.00051 | < 0.0003 | < 0.0003 | 0.179 | 3.5e-05 | 190000 |  | 5B7 IgG1 F243A/V264A double mutein expressed in Pichia pastoris (antibody, V domains shown, IgG1 F243A/V264A (EU) double mutein, alpha-2,6-sialylated, from glycoengineered Pichia pastoris; also called 5B7-DM; 5B7-DM Pichia) VH: QVQLVQSGAEVKKPGASVKVSCKASGGTFSSYAISWVRQAPGQGLEWMGGIIPIFGTANYAQKFQGRVTITADKSTSTAYMELSSLRSEDTAVYYCARVDYDILTGYYMGYFDYWGQGTLVTVSS VL: DIVMTQSPATLSLSPGERATLSCRASQSVSSYLAWYQQKPGQAPRLLIYDASNRATGIPARFSGSGSGTDFTLTISSLEPEDFAVYYCQQRSNWPITFGQGTRLEIKR | Kd [16]: 0.065 nM; koff [16]: 4e-05 s⁻¹; kon [16]: 620000 M⁻¹ s⁻¹
3 |  |  |  |  |  |  | 4 | 3 | no binding (tested: 50 nM) | no binding (tested: 50 nM) | 0.0526 | 0.107 | 0.0018 | < 0.0003 | 0.0013 | < 0.0003 | 0.224 | 4.2e-05 | 190000 | 0.08 | 5B7 IgG expressed in HEK293 cells (antibody, V domains shown, also called 5B7 (293); 5B7-HEK293) VH: QVQLVQSGAEVKKPGASVKVSCKASGGTFSSYAISWVRQAPGQGLEWMGGIIPIFGTANYAQKFQGRVTITADKSTSTAYMELSSLRSEDTAVYYCARVDYDILTGYYMGYFDYWGQGTLVTVSS VL: DIVMTQSPATLSLSPGERATLSCRASQSVSSYLAWYQQKPGQAPRLLIYDASNRATGIPARFSGSGSGTDFTLTISSLEPEDFAVYYCQQRSNWPITFGQGTRLEIKR | Kd [17]: 0.4 nM; Kd [18]: 0.0145 nM; IC50 [19]: 0.1 nM; IC50 [20]: 0.16 nM; IC50 [22]: 0.43 nM; Kd [16]: 0.062 nM; koff [16]: 4.2e-05 s⁻¹; kon [16]: 670000 M⁻¹ s⁻¹
4 |  |  |  |  |  |  |  |  |  |  |  |  |  |  |  |  |  |  |  | 1.46 | 4A2 IgG expressed in HEK293 cells (antibody, V domains shown, IgG from HEK293-FreeStyle cells) VH: QVQLVQSGGGVVQPGRSLRLSCAASGFTFSSYGMHWVRQAPGKGLEWVAVISHDGSNKYYADSVKGRFTISRDNSKNTLYLQMNSLRAEDTAVYYCAKDRSYYDILTGYYIPYYYGMDVWGQGTTVTVSS VL: QAVLTQPPSASGTPGQKVTISCSGSSSDIGSNNVNWYQQFPGTAPKLLIHSNNLRPSGVPVRFSGSKSGTSASLAISGLQSEDEADYYCSAWDDSVNGVAFGGGTKLTVLG | Kd [18]: 0.0486 nM; IC50 [20]: 0.47 nM; IC50 [23]: 28 nM; IC50 [24]: > 100 nM
5 |  |  |  |  |  |  |  |  |  |  |  |  |  |  |  |  |  |  |  | 0.11 | 1F4 IgG expressed in HEK293 cells (antibody, V domains shown, IgG from HEK293-FreeStyle cells; also called IF4) VH: QVTLKESGPTLVKPTQTLTLTCTFSGFSLSTSRVGVGWIRQPPGKALEWLARIDWDDDKYYSTSLKTRLTISKDTSKNQVVLTMTNMDPVDTATYYCARTHTYYDILTGYSYHVYFDYWGQGTLVTVSS VL: QSALTQPPSASGSRGQSVSISCSGSRSDIGYYNYVSWYQQHPGKAPKLIIFDVNKRPSGVPDRFSGSKSGNTASLTVSGLQPEDEADYYCASYGGRNNLLFGGGTQLTVLG | IC50 [25]: 2.87 nM
6 |  |  |  |  |  |  |  |  |  |  |  |  |  |  |  |  |  |  |  |  | B1 | binding result [26]: binds
